We go through 2 molecules from patent US20190225680A1 (NASCIENT, published 2019).

Test [1] addresses T1, human TNR rCd4-His-FBG (rat; human).
T1 sequence: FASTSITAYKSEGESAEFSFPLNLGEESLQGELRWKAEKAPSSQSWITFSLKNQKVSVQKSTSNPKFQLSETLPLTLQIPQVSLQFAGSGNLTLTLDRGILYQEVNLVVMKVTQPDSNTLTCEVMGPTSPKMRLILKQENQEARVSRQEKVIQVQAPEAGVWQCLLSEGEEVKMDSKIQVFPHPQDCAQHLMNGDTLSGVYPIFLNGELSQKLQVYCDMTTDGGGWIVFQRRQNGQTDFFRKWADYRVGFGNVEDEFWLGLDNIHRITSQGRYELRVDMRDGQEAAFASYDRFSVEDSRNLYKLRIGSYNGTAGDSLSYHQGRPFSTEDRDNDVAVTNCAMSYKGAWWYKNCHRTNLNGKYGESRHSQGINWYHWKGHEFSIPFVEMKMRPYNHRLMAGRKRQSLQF
The test can be described thus: SPR, 37 C, purified IgG4 captured on anti-human Fc. A general note: Surface plasmon resonance follows binding to a sensor surface in real time, without labels.

Test [2] addresses T2, mouse TNC rCd4-His-FBG (rat; mouse, UniProt P05540 207-386).
T2 construct: domain: domains 3 and 4; also called Mu TNC; mouse TNC FBG
T2 sequence: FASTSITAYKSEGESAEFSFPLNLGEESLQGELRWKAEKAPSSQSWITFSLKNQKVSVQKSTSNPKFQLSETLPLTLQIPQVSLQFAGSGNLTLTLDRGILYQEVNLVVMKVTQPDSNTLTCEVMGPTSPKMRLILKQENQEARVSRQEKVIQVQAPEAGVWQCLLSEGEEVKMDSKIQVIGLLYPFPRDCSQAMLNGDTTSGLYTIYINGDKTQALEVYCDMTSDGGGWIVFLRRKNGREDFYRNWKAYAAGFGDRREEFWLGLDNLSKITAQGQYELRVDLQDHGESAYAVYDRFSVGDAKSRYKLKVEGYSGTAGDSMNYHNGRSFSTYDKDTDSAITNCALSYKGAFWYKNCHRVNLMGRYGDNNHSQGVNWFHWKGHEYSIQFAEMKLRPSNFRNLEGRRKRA
The test can be described thus: SPR, BIAcore T100, 37 C, IgG4 captured on anti-human Fc, rCD4-His-FBG injected, 1:1 fit.

The target in test [3] is T3, dog TNC rCD4-His-FBG (rat; dog).
T3 sequence: T2 sequence with I209L, T214A, S269H, Q284R, E288K, S289T, S304T, N322A, Y332F
Described as above.

Test [4] concerns the target T4, human TNC rCd4-His-FBG (rat; human).
T4 sequence: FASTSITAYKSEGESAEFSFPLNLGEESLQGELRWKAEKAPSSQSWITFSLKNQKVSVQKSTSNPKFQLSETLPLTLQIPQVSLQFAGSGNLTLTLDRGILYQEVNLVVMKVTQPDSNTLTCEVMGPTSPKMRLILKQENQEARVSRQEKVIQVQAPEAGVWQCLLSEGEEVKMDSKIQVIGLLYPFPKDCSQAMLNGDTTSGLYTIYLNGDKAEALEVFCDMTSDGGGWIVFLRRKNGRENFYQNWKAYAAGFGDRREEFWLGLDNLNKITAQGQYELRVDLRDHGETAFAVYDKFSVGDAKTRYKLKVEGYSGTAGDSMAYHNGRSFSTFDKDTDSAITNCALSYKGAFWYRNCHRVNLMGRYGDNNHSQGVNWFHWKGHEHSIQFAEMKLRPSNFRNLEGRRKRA
Described as above.

Test [5] concerns the target T1, human TNR rCd4-His-FBG (rat; human). Described as above.
The target of test [6] is T5, rat TNC rCd4-His-FBG (rat) (UniProt P05540).
T5 sequence: T2 sequence with A252T
The test is described as above.

The target of test [7] is T2, mouse TNC rCd4-His-FBG. Briefly: SPR off-rate screen, 25 C, IgG4 from supernatant captured on anti-human Fc, 15 nM antigen, 1:1 fit.
Test [8] deals with T1, human TNR rCd4-His-FBG (rat; human). The test can be described thus: SPR off-rate screen, 25 C, IgG4 from supernatant captured on anti-human Fc, 100 nM antigen, 1:1 fit.
Test [9] concerns the target T6, human TNR rCd4-His-FBG (rat; human, UniProt P05540 207-386).
T6 construct: domain: domains 3 and 4; also called Hu TNR; human TNR FBG
T6 sequence: T1 sequence
The test can be described thus: SPR, BIAcore T100, 25 C, Fab captured, rCd4-FBG injected. On the procedure: Experiments were performed using a BIAcore T100 instrument with CM5 sensor chip according to the protocol provided with the Human Fab Capture Kit (GE, 28-9583-25). Varying concentrations of rCd4-FBG were injected into a flow-cell with immobilised Fab and a reference flow-cell. After reference signal subtraction, the data was fitted to a global 1:1 fit using theT100 BIAevaluation software.

Where a chain is given by its changes, count along the chain named.

By Kd is commonly meant the equilibrium constant for the complex coming apart. A lower Kd goes with a tighter complex. In general, koff refers to the first-order rate constant of dissociation. The term kon denotes the rate constant with which the complex forms.

B1: 165_13_C3 IgG4 (antibody, V domains shown)
VH: QVQLVESGGGLVQPGRSLRLSCAASGFTFDDYAMHWVRQAPGKGLEWVSGISGSGGSTYYADSVKGRFTISRDNAKNSLYLQMNSLRAEDTALYYCAKSYQSDEDAFDIWGQGTMVTVSS
VL: DIQMTQSPASLPTPVGDRVTITCRASQYIQGFLNWYQQKPGKAPKLLIYDASNLETGVPSRFSGSGSGTDFTLTISSLQPEDFATYYCQQSYSTPQTFGQGTKVDIKR
B1 registered a fold lower affinity for human TNR FBG than for human TNC FBG in [1] of more than 70 fold. Further, the equilibrium dissociation constant (Kd) in [2] was 0.46 nM; in test [3] it was 1.8 nM; in [4], 0.072 nM; in [5] it was 35.8 nM; in test [6], 1.22 nM. The off-rate (koff) in test [2] stood at 0.000445 s⁻¹; in test [3], 0.0108 s⁻¹; in [4], 0.00083 s⁻¹; in test [5], 0.0431 s⁻¹; in [6], 0.00473 s⁻¹; in test [7], 3.3e-06 s⁻¹. In test [8], this molecule registered a koff of 0.012 s⁻¹. For the same molecule, the association rate constant (kon) in test [2] came to 972000 M⁻¹ s⁻¹; in test [3], 5.97e+06 M⁻¹ s⁻¹; in test [4], 1.16e+07 M⁻¹ s⁻¹; in test [5], 1.2e+06 M⁻¹ s⁻¹; in [6], 3.89e+06 M⁻¹ s⁻¹.

B2: B12 Fab (Fab, V domains shown)
VH: B1 VH with S99D, Y100I, Q101S, S102A, D103V, E104P, A106T
VL: B1 VL
notes: Monomeric Fab from a dual promoter Fab vector; also called B12 parental antibody
On to B2, for which the “fold lower affinity for human TNR FBG than for human TNC FBG” value in test [9] was more than 60 fold.
